This note sets out measurements from PMC10033409, “Autoregulation of GPCR signalling through the third intracellular loop” (Nature, 2023).

For one experiment, the system named is PTH1R–Gs peptide. Nature of the experiment: PTH1R-luciferase complementation reporter assay, Gs peptide. The format is biochemical, human. To be noted: PTH1R construct named by the receptor or protein whose sequence replaces ICL3 (WT = wild-type); X axis of Figure 5G. In general terms: Reporter assays use an easily measured gene product as a stand-in for the process of interest.

The next experiment relates to PTH1R–Gq peptide. Nature of the experiment: PTH1R-luciferase complementation reporter assay, Gq peptide. To be noted: PTH1R construct named by the receptor or protein whose sequence replaces ICL3 (WT = wild-type); Y axis of Figure 5G. It counts as biochemical, human. On the procedure:
For PTH1R luciferase complementation reporter assays, cells were seeded the day prior to transfection at 25-30% confluence on 12-well plates. For each transfection, 0.5 μg DNA, 1.5 μl X-tremeGENE HP, and 100 μl Opti-MEM were combined, incubated for 15-20 min, and added to seeded wells. For each mutant, PTH1R-Gs peptide, PTH1R-Gq peptide and PTH1R-(no peptide) constructs were transfected in parallel. Spep and Qpep constructs were transfected 24 h prior to collection, and no-peptide constructs were transfected 18 h before collection. […] Media in each well was used to gently shear and resuspend the cells by pipetting. The cell mixture was centrifuged (3 min, 300g) and the media was aspirated. Cell pellet was resuspended in 1 ml PBS and centrifuged again as above. […] Cellular debris was removed by centrifugation (1,000g for 1 min). To collect additional vesicles, debris was resuspended in 0.3 ml PBS, briefly vortexed, and centrifuged again (1,000g for 1 min). The ~0.9 ml of combined decanted supernatant was centrifuged one additional time (1,000g for 2 min) to better remove cellular debris. […] Vesicle samples were collected in a 96-well clear bottom plate and assayed for TagRFP fluorescence (Tecan Spark, excitation 521 nm, emission 585 nm, gain 150). For each set of constructs for a given […] ([…] control), samples were diluted to the lowest TagRFP counts. […] The plate was tapped 2-3 times to mix, and the kinetic read was resumed. Moving averages were computed for each kinetic trace (3-point averages for 5 min equilibration, 8-point moving averages post-drug treatment). Each kinetic trace was normalized to the last point of the pre-drug equilibration. The maximum luminescence value that appeared stable over time was used for further analysis. Specific Spep and Qpep signals were calculated by subtracting the control value from the Spep value and the Qpep value for a given experiment.

The subject of experiment [1] is β2AR–Gs peptide FRET sensor. Nature of the experiment: ∆FRET assay, β2AR–Gs peptide SPASM FRET sensor.
In experiment [2] the target is β2AR ICL3 FRET sensor, β2AR(L258Azi/Y350Azi/∆351–413) (Homo sapiens, UniProt P07550, L258F/Y350F). Nature of the experiment: Time-correlated single photon counting FRET assay, β2AR ICL3 FRET sensor (AZDye488/AZDye546). To be noted: in combination with isoproterenol.
Experimental: Cell membranes were prepared following the procedure in ‘Crude cell membrane extracts’ through the first ultracentrifugation step (135,000g, 25 min, 4 °C). […] Solution was homogenized, first by passing through a 1 ml micropipette 10 times, then passing through a 20-gauge needle 10 times. To initiate the reaction, sodium ascorbate (50 mM) was added to the mixture and mixed by pipetting (2 ml final volume). Reactions were incubated with mild shaking (500 rpm) for 30 min at 25 °C.
For conditions without drug, peptide or nanobody, an equivalent volume of assay buffer was added. Reactions were equilibrated for 5 min prior to reading. […] Time-resolved fluorescence decay data were fit to the equation: Decay=α1e^−t/τ^1+α2e^−t/τ^2+α3e^−t/τ^3
Amplitude-weighted average lifetimes (τavg) were calculated from the three-exponential decay equation: τavg=(α1τ1+α2τ2+α3τ3)/(α1+α2+α3)
Each condition was performed in technical duplicate or triplicate, depending on sensor yield.

Experimental for PTH1R–Gs peptide: For PTH1R luciferase complementation reporter assays, cells were seeded the day prior to transfection at 25–30% confluence on 12-well plates. For each transfection, 0.5 µg DNA, 1.5 µl X-tremeGENE HP, and 100 µl Opti-MEM were combined, incubated for 15–20 min, and added to seeded wells. […] Spep and Qpep constructs were transfected 24 h prior to collection, and no-peptide constructs were transfected 18 h before collection.
Expressed PTH1R-luciferase complementation constructs were vesiculated as previously described, with modifications for smaller sample volume[25]. Media in each well was used to gently shear and resuspend the cells by pipetting. The cell mixture was centrifuged (3 min, 300g) and the media was aspirated. Cell pellet was resuspended in 1 ml PBS and centrifuged again as above. Cells were resuspended again in 0.6 ml vesiculation buffer (10 mM HEPES pH 7.4, 150 mM NaCl, 20 mM CaCl2, 2 µg ml^−1 aprotinin, 2 µg ml^−1 leupeptin, 2 mM N-ethylmaleimide) and incubated at 30 °C with shaking at 180 rpm for 2 h. Cellular debris was removed by centrifugation (1,000g for 1 min). To collect additional vesicles, debris was resuspended in 0.3 ml PBS, briefly vortexed, and centrifuged again (1,000g for 1 min). The ~0.9 ml of combined decanted supernatant was centrifuged one additional time (1,000g for 2 min) to better remove cellular debris. Vesicles were collected by centrifugation (3,200g for 40 min at 4 °C) and washed in 0.5 ml assay buffer. Centrifugation step was repeated, and vesicles were resuspended in 0.1 ml assay buffer.
45 µl of each sample was transferred to an opaque 96-well flat bottom plate. 45 µl of Nano-Glo Substrate (Promega N1110) diluted 1:50 in assay buffer was added to each well in the new plate. After tapping the plate to collect liquid at the bottom of the well, a kinetic luminescence read was started (500 ms integration, continuous for 40 min) and luminescence signal was tracked. […] The plate was tapped 2–3 times to mix, and the kinetic read was resumed. Moving averages were computed for each kinetic trace (3-point averages for 5 min equilibration, 8-point moving averages post-drug treatment). Each kinetic trace was normalized to the last point of the pre-drug equilibration. The maximum luminescence value that appeared stable over time was used for further analysis. Specific Spep and Qpep signals were calculated by subtracting the control value from the Spep value and the Qpep value for a given experiment.

B1: CCK2 (protein, UniProt P32239 1-447, looked up)
Gastrin/cholecystokinin type …: MELLKLNRSVQGTGPGPGASLCRPGAPLLNSSSVGNLSCEPPRIRGAGTRELELAIRITLYAVIFLMSVGGNMLIIVVLGLSRRLRTVTNAFLLSLAVSDLLLAVACMPFTLLPNLMGTFIFGTVICKAVSYLMGVSVSVSTLSLVAIALERYSAICRPLQARVWQTRSHAARVIVATWLLSGLLMVPYPVYTVVQPVGPRVLQCVHRWPSARVRQTWSVLLLLLLFFIPGVVMAVAYGLISRELYLGLRFDGDSDSDSQSRVRNQGGLPGAVHQNGRCRPETGAVGEDSDGCYVQLPRSRPALELTALTAPGPGSGSRPTQAKLLAKKRVVRMLLVIVVLFFLCWLPVYSANTWRAFDGPGAHRALSGAPISFIHLLSYASACVNPLVYCFMHRRFRQACLETCARCCPRPPRARPRALPDEDPPTPSIASLSRLSYTTISTLGPG
Turning to B1, in the experiment on PTH1R–Gs peptide, the “Specific Peptide Signal, Gs (Average)” value is 0.42. The “Specific Peptide Signal, Gq (Average)” value with PTH1R–Gq peptide was 0.12.

B2: Nb6B9: nanobody that binds the receptor’s cytosolic cavity in the active state (antibody, V domains shown)
VH: QVQLQESGGGLVQAGGSLRLSCAASGSIFALNIMGWYRQAPGKQRELVAAIHSGGTTNYANSVKGRFTISRDNAANTVYLQMNSLKPEDTAVYYCNVKDFGAIIYDYDYWGQGTQVTVSS
As to B2, the “effect on agonist-induced FRET of β2AR–G peptide sensor” value in experiment [1] (wild-type β2AR–Gs peptide FRET sensor) was “significantly quenched FRET”; in experiment [1] (β2AR(∆ICL3), Gs and Gq peptide sensors), “quenched the interactions of both the Gs and Gq peptides with the receptor”. Also, the “effect on FRET efficiency of the ICL3 FRET sensor treated with isoproterenol” value in experiment [2] was “quenched”.

B3: ADA1A (protein, UniProt P35348 1-466, looked up)
Alpha-1A adrenergic receptor: MVFLSGNASDSSNCTQPPAPVNISKAILLGVILGGLILFGVLGNILVILSVACHRHLHSVTHYYIVNLAVADLLLTSTVLPFSAIFEVLGYWAFGRVFCNIWAAVDVLCCTASIMGLCIISIDRYIGVSYPLRYPTIVTQRRGLMALLCVWALSLVISIGPLFGWRQPAPEDETICQINEEPGYVLFSALGSFYLPLAIILVMYCRVYVVAKRESRGLKSGLKTDKSDSEQVTLRIHRKNAPAGGSGMASAKTKTHFSVRLLKFSREKKAAKTLGIVVGCFVLCWLPFFLVMPIGSFFPDFKPSETVFKIVFWLGYLNSCINPIIYPCSSQEFKKAFQNVLRIQCLCRKQSSKHALGYTLHPPSQAVEGQHKDMVRIPVGSRETFYRISKTDGVCEWKFFSSMPRGSARITVSKDQSSCTTARVRSKSFLQVCCCVGPSTPSLDKNHQVPTIKVHTISLSENGEEV
Take B3: the “Specific Peptide Signal, Gs (Average)” value in the experiment with PTH1R–Gs peptide is on record as 0.59. In addition, in the experiment with PTH1R–Gq peptide, the “Specific Peptide Signal, Gq (Average)” value was 0.14.

B4: DRD3 (protein, UniProt P35462 1-400, looked up)
D(3) dopamine receptor: MASLSQLSGHLNYTCGAENSTGASQARPHAYYALSYCALILAIVFGNGLVCMAVLKERALQTTTNYLVVSLAVADLLVATLVMPWVVYLEVTGGVWNFSRICCDVFVTLDVMMCTASILNLCAISIDRYTAVVMPVHYQHGTGQSSCRRVALMITAVWVLAFAVSCPLLFGFNTTGDPTVCSISNPDFVIYSSVVSFYLPFGVTVLVYARIYVVLKQRRRKRILTRQNSQCNSVRPGFPQQTLSPDPAHLELKRYYSICQDTALGGPGFQERGGELKREEKTRNSLSPTIAPKLSLEVRKLSNGRLSTSLKLGPLQPRGVPLREKKATQMVAIVLGAFIVCWLPFFLTHVLNTHCQTCHVSPELYSATTWLGYVNSALNPVIYTTFNIEFRKAFLKILSC
Consider B4, for which the “Specific Peptide Signal, Gs (Average)” value in the experiment on PTH1R–Gs peptide worked out at 0.72. Further, in the experiment with PTH1R–Gq peptide, the “Specific Peptide Signal, Gq (Average)” value came out at 0.08.

B5: CNR1 (protein, UniProt P21554 1-472, looked up)
Cannabinoid receptor 1: MKSILDGLADTTFRTITTDLLYVGSNDIQYEDIKGDMASKLGYFPQKFPLTSFRGSPFQEKMTAGDNPQLVPADQVNITEFYNKSLSSFKENEENIQCGENFMDIECFMVLNPSQQLAIAVLSLTLGTFTVLENLLVLCVILHSRSLRCRPSYHFIGSLAVADLLGSVIFVYSFIDFHVFHRKDSRNVFLFKLGGVTASFTASVGSLFLTAIDRYISIHRPLAYKRIVTRPKAVVAFCLMWTIAIVIAVLPLLGWNCEKLQSVCSDIFPHIDETYLMFWIGVTSVLLLFIVYAYMYILWKAHSHAVRMIQRGTQKSIIIHTSEDGKVQVTRPDQARMDIRLAKTLVLILVVLIICWGPLLAIMVYDVFGKMNKLIKTVFAFCSMLCLLNSTVNPIIYALRSKDLRHAFRSMFPSCEGTAQPLDNSMGDSDCLHKHANNAASVHRAAESCIKSTVKIAKVTMSVSTDTSAEAL
In the case of B5, in the experiment with PTH1R–Gs peptide, the “Specific Peptide Signal, Gs (Average)” value is reported as 0.53. Besides, the “Specific Peptide Signal, Gq (Average)” value with PTH1R–Gq peptide stood at 0.10.

B6: 5HT2C (protein, UniProt P28335 33-458, looked up)
5-hydroxytryptamine receptor …: IVTDIFNTSDGGRFKFPDGVQNWPALSIVIIIIMTIGGNILVIMAVSMEKKLHNATNYFLMSLAIADMLVGLLVMPLSLLAILYDYVWPLPRYLCPVWISLDVLFSTASIMHLCAISLDRYVAIRNPIEHSRFNSRTKAIMKIAIVWAISIGVSVPIPVIGLRDEEKVFVNNTTCVLNDPNFVLIGSFVAFFIPLTIMVITYCLTIYVLRRQALMLLHGHTEEPPGLSLDFLKCCKRNTAEEENSANPNQDQNARRRKKKERRPRGTMQAINNERKASKVLGIVFFVFLIMWCPFFITNILSVLCEKSCNQKLMEKLLNVFVWIGYVCSGINPLVYTLFNKIYRRAFSNYLRCNYKVEKKPPVRQIPRVAATALSGRELNVNIYRHTNEPVIEKASDNEPGIEMQVENLELPVNPSSVVSERISSV
On to B6, for which the “Specific Peptide Signal, Gs (Average)” value in the experiment on PTH1R–Gs peptide is reported as 0.48. For the same molecule, the “Specific Peptide Signal, Gq (Average)” value with PTH1R–Gq peptide is on record as -0.00493.
